Reference: patent publication US20030113828A1 (published 2003)
Residue numbers refer to the chain shown, from its start. Names may count otherwise. Square brackets hold non-standard residues; d marks the D form. Ends that are not written are not given here. pY = N[C@@H](Cc1ccc(OP(=O)(O)O)cc1)C(=O)O

Legend:
[1] = molecular target: T1, GST-Zap-70(1-337) (human, UniProt P43403 1-337); test: affinity chromatography / surface plasmon resonance
T1 construct: range 1-337; also called tandem SH2 domains of Zap-70; not shown: glutathione S-transferase (GST) from pGEX-2T
T1 sequence (looked up): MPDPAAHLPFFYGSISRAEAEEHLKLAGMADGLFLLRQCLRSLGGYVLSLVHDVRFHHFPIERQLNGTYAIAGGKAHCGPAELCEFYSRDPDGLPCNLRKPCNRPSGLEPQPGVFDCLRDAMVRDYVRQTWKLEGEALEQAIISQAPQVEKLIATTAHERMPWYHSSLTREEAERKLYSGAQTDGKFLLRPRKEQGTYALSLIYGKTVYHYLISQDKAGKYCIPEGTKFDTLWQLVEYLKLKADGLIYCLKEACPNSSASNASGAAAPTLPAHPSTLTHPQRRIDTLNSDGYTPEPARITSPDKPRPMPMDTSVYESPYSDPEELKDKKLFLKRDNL

[2] = molecular target: Syk(6-370) cleaved from GST-Syk(6-370) by thrombin (UniProt P43405 6-370); test: surface plasmon resonance (BIAcore 3000)
Description: However integrins are far more abundant than ITAM containing receptor complexes on most cells. For example, Jurkat T cells express ˜80,000 copies of α4β1 (Chen et al. (1999) J Biol Chem 274:13167-13175) and only ˜-12,000 copies of the TCR (Graber et al. (1991) J Immunol 146:2935-2943) on their cell surface.
Experimental procedures, integrin cytoplasmic domain modifications, and data analysis was performed in accordance with procedures described by Yan et al. ((2001) J Biol Chem 276:28164-28170).

[3] = molecular target: T2, GST fusion of the interdomain A of Syk (UniProt P43405 108-167); test: direct binding assay with GST fusion of Syk interdomain A
T2 construct: domain: interdomain A; also called Syk interdomain A GST-fusion protein; not shown: glutathione S-transferase (GST) fusion partner
Description: (§1) The regions involved in phosphotyrosine binding are widely separated and in opposite orientation (Hof et al. (1998) Cell 92:441-450).
(§2) For direct binding assays, model peptides (1 mg) were dissolved in 1 ml buffer containing 20 mM Tris (pH 7.9), 500 mM NaCl, and 6 M urea. To this, 50 ul packed His-Bind® Resin (Novagen, Madison, Wis.) was added and the mixture was rotated for 1 hour at room temperature. Immobilized peptides were washed 5× in above buffer without urea, and resuspended in 500 μl buffer containing 20 mM PIPES pH 6.8, 50 mM NaCl, 3 mM MgCl₂, 150 mM sucrose, 50 mM NaF, 40 mM Na₄P₂O₇*10H₂O (buffer A) supplemented with 0.1% TritonX-100 and 3 mM MgCl₂. Purified GST-fusion proteins were added to 0.5 ml buffer A supplemented with 0.1% TritonX-100 and 3 mM MgCl₂. Five μl of total packed resin loaded with various integrin cytoplasmic domain model proteins was added to the GST-fusion protein. The mixture was incubated for 40 minutes at room temperature with continuous rotation. The beads were then washed five times in buffer A with 0.1% TritonX-100 and 3 mM MgCl₂. Bound proteins were eluted by boiling in reducing sample buffer, fractionated by SDS PAGE, and immuno-blotted.

[4] = molecular target: T3, Zap-70(1-132) (human, UniProt P43403 1-132); test: binding of Zap-70 truncation mutants to the β3 tail
T3 construct: range 1-132
T3 sequence (looked up): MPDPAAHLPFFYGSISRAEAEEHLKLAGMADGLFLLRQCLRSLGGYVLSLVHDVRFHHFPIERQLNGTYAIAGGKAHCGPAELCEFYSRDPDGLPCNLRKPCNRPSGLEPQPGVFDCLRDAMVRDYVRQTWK
Description: as §2

[5] = molecular target: T4, Zap-70(1-162) (human, UniProt P43403 1-162); test: as above
T4 construct: range 1-162; also called N-terminal SH2 domain of Zap-70 with its intact IA domain
Description: as §2

[6] = molecular target: T5, GST-Zap-70(1-103) (human, UniProt P43403 1-103); test: direct binding assay
T5 construct: range 1-103; also called Zap-70 N-terminal SH2 domain; not shown: glutathione S-transferase (GST) from pGEX-2T
T5 sequence (looked up): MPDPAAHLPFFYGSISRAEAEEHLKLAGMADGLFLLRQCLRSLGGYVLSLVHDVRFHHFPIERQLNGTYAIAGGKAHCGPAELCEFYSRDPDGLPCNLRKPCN
Description: as §1, §2

[7] = molecular target: T6, GST-Syk(163-270) (UniProt P43405 163-270); test: direct binding assay
T6 construct: also called C-terminal SH2 domain of Syk; not shown: glutathione S-transferase (GST) fusion partner
Description: as §1, §2

[8] = molecular target: T7, GST-Zap-70(163-254) (human, UniProt P43403 163-254); test: direct binding assay
T7 construct: also called Zap-70 C-terminal SH2 domain; not shown: glutathione S-transferase (GST) from pGEX-2T
T7 sequence (looked up): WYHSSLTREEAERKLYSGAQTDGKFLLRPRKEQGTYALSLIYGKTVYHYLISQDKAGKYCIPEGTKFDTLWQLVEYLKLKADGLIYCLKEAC
Description: as §1, §2

[9] = molecular target: T8, tandem SH2 domains of SHP-2 (UniProt Q06124 1-220, limits assumed); test: direct binding assay
T8 construct: domain: tandem SH2 domains
T8 sequence (looked up): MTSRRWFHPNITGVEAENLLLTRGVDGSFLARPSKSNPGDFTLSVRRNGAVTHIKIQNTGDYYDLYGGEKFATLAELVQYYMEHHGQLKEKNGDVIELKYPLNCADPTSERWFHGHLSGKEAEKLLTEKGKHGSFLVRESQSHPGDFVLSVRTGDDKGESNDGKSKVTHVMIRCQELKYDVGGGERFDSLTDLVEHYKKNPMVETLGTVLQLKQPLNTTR
Description: as §1, §2

[10] = molecular target: T9, Syk protein tyrosine kinase (wild type) (UniProt P43405 1-635); test: affinity chromatography of cell lysates on tail model protein beads, immunoblot
T9 construct: the printed residue numbers (K402, R195, R42, Tyr348) fit it; also called wild-type Syk; Syk kinase
From the text: (§3) The model protein mimics are designed with an N-terminal heptad repeat sequence joined to the integrin cytoplasmic domains. The repeats form a coiled-coil homodimer that dimerizes the integrin tails (Pfaff et al. (1998) J Biol Chem 273:6104-6109). These protein mimics are also describied in U.S. patent application Ser. No. 90/320,907, filed May 27, 1999 and U.S. patent application Ser. No. 90/323,447, filed Jun. 1, 1999, the teachings of which are herein incorporated by reference in their entirety.
(§4) Following incubation, beads were washed and bound protein was analyzed by immunoblotting.

[11] = molecular target: T10, Zap-70 (human, UniProt P43403 1-619); test: as above
T10 construct: also called Syk paralog
T10 sequence (looked up): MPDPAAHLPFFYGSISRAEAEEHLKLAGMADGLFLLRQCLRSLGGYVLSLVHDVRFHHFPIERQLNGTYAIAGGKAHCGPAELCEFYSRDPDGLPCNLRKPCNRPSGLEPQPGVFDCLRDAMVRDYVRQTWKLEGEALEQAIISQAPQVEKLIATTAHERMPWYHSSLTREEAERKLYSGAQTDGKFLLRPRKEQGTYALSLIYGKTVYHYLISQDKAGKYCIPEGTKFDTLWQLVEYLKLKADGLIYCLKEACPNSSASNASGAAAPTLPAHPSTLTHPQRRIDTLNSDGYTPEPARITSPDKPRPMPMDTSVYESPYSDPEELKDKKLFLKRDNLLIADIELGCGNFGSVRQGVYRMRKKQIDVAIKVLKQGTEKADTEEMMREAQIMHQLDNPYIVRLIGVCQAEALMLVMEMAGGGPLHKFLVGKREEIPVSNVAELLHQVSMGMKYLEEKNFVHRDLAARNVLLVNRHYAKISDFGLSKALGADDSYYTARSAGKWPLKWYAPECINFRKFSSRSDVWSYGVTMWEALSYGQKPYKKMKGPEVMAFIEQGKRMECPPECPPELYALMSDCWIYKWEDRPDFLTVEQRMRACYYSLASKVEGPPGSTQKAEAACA
From the text: as §3, §4

[12] = molecular target: T1, GST-Zap-70(1-337); test: direct binding of GST fusion protein to tail model protein beads, immunoblot
Description: as §4, §2

[13] = molecular target: GST-Syk(6-370) (UniProt P43405 6-370); test: as above
Description: as §4, §2

[14] = molecular target: T9, Syk protein tyrosine kinase (wild type); test: binding to β3 tail deletion mutant in vitro
Description: as §2

[15] = molecular target: T9, Syk protein tyrosine kinase (wild type); test: cell-based or functional assay

KLLMIIHDRREFAKFEKEKMNAKWDTGENPIYKSAVTTVVNPKYEGK (other, UniProt P05556 752-798, looked up, not shown: small tags and cut ends, not fully specified, domain: cytoplasmic domain) [β1A integrin cytoplasmic domain model protein]: binds [1].

B1: integrin β3 cytoplasmic tail model protein (other, UniProt P05106 742-788, looked up, not shown: a dimerising Fc or GST)
chain: KLLITIHDRKEFAKFEEERARAKWDTANNPLYKEATSTFTNITYRGT
modifications: also: coiled-coil homodimer
notes: domain: cytoplasmic domain; Coiled-coil homodimer; also called β3 tail; β3 tail model protein
B1 was tested, and the Kd [2] was 24 nM, the binding result [3] was “no binding” and the binding result [1] was “binds”. B1: binds [4]; binds [5]; binds [6]. B1: no binding [7]; no binding [8]; no binding [9].

B2: integrin β3(Y747A) cytoplasmic tail model protein (other, UniProt P05106 742-788, looked up, not shown: small tags and cut ends)
chain: B1 chain with Y32A
modifications: not fully specified
notes: domain: cytoplasmic domain; also called β3(Y747A) tail; point mutant of the β3 tail (Y747A)
B2: no binding [10]; no binding [11]; no binding (tested: 5 nM) [12]. B2: no binding (tested: 5 nM) [13].

KLLITIHDRKEFAKFEEERARAKWDTANNPLYKEAT (other, UniProt P05106 742-777, looked up, not shown: small tags and cut ends, not fully specified, domain: cytoplasmic domain) [β3(752X) cytoplasmic tail model protein]: no binding [14].

B3: β3(759X) cytoplasmic tail model protein (other, UniProt P05106 742-784, looked up, not shown: small tags and cut ends)
chain: KLLITIHDRKEFAKFEEERARAKWDTANNPLYKEATSTFTNIT
modifications: not fully specified
notes: domain: cytoplasmic domain; C-terminal truncation
B3: no binding [14].

For KLLIHLSDLREYRRFEKEKLKSQWNNDNPLFKSATTTVMNPKFAES (other, UniProt P05107 724-769, looked up, not shown: small tags and cut ends, not fully specified, domain: cytoplasmic domain) [β2 integrin cytoplasmic domain model protein], the Kd [2] was 36 nM and the binding result [1] was “binds”.

In the case of DGV[pY]TGLSTRNQET[pY]ETLKTCR [dually-phosphorylated FcεRIγ chain ITAM peptide], the “activation of Syk kinase in vitro (EC50)” value [15] is reported as 1000 to 2000 nM.
